Like-named read-outs stand apart in the source and are kept apart here.
How the values were obtained:
CYP3A4 [1] = target: T1, CYP3A4 (Homo sapiens, UniProt P08684)
CYP3A4 [2] = target: T1, CYP3A4; assay: Kinetic properties of fluorescein-based fluorogenic substrates with CYP 3A4; type: biochemical; details: for K1/2max: concentration at 1/2 maximal velocity for sigmoidal kinetics; for vmax: for sigmoidal kinetics; for v (1.25 uM): turnover rate at 1.25 uM substrate; for v (1.25 uM) / v (10 uM): 100 mM K+ phosphate, pH 8.0; for v (10 uM): turnover rate at 10 uM substrate
Description: (§1) Dibenzylfluorescein (DBF) was purchased form Gentest, Woburn, Mass. […] DBF, BOMF and DBOMF were diluted from a stock solution of 2 mM in acetonitrile to a 4×concentration of 80 μM in 100 mM K+ phosphate buffer. Seven 1:2 dilutions were made of each substrate of which 25 μl was added to the appropriate wells. […] The cytochrome P450 isozyme CYP3A4 was diluted to give a 0.5 pmol enzyme per well and added in a volume of 10 μl/well in K+ phosphate, pH 8.0. Enzymatic conversion of the substrate to products was allowed to proceed for 1 hour with fluorescence reads taken every four minutes on a fluorescence microtiter plate reader. The solution was illuminated using an 485/20 nm excitation filter and fluorescence emission was detected through a 530/25 nm the emission filter.

CYP 2C8 = target: T2, CYP 2C8 (Homo sapiens, UniProt P10632); assay: Kinetic properties of fluorescein-based fluorogenic substrates with CYP 2C8; type: biochemical; details: for v (1.25 uM): turnover rate at 1.25 uM substrate; for v (1.25 uM) / v (10 uM): 100 mM K+ phosphate buffer, pH 7.5; for v (10 uM): turnover rate at 10 uM substrate
T2 sequence (P10632 1-490): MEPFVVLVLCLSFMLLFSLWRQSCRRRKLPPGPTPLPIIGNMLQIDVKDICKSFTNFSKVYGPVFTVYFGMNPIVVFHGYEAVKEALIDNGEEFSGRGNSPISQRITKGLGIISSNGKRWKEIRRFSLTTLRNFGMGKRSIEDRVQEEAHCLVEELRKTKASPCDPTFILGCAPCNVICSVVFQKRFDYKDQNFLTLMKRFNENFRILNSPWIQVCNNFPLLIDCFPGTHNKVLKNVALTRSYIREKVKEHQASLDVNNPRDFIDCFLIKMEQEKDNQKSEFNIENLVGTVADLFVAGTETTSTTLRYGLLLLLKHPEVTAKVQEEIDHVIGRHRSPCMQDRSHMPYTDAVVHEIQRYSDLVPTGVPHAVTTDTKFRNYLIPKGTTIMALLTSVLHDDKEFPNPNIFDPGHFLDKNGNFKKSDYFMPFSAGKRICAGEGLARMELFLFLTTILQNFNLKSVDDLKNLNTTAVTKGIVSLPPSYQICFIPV
Description: as §1
In deviation from the protocol described in Example 32, the phosphate-based buffer (100 mM K+ phosphate, pH 8.0) was replaced throughout the procedure by 100 mM K+ phosphate buffer, pH 7.5. […] Specifically, the substrate dibenzylfluorescein (DBF) (purchased form Gentest, Woburn, Mass.) and the sensor of the present invention DBOMF were tested for activity with CYP 2C8.

CYP3A4 [3] = target: T1, CYP3A4; assay: in vitro; details: pH 8, % inhibition, 10 μM drug; for inhibition at 20 min, 10 µM: Condition A, 20 min pre-incubation without NADP+ (no enzyme turnover), relative to 10 μM clotrimazole control; for inhibition at 40 min, 10 µM: Condition B, 40 min pre-incubation with NADP+ (enzyme turnover), relative to 10 μM ellipticine control
[4] = substrate: CC(C)Oc1ccc2cc(C#N)c(=O)oc2c1; assay: Kinetic properties of fluorogenic substrates with CYP 2D6; type: biochemical, human; details: other: — = too low to quantify
Excerpt: (§2) (respectively, MFC and MR).

[5] = substrate: COCOc1ccc2nc3ccc(=O)cc-3oc2c1; assay: as above; type: biochemical, human; details: other: — = too low to quantify
Excerpt: as §2

[6] = substrate: COc1ccc(COc2ccc3c(C(F)(F)F)cc(=O)oc3c2)cc1; assay: as above; type: biochemical, human; details: other: — = too low to quantify
Excerpt: as §2

[7] = substrate: COc1ccc(COc2ccc3nc4ccc(=O)cc-4oc3c2)cc1; assay: as above; type: biochemical, human; details: other: — = too low to quantify
Excerpt: as §2

[8] = substrate: CC(C)Oc1ccc2cc(C#N)c(=O)oc2c1; assay: Kinetic properties of fluorogenic substrates with CYP 2C19; type: biochemical, human; details: other: — = too low to quantify
[9] = substrate: CCCCCCCCOCOc1ccc2cc(C#N)c(=O)oc2c1; assay: as above; type: biochemical, human; details: other: — = too low to quantify
[10] = substrate: CCCCCCCCOCOc1ccc2nc3ccc(=O)cc-3oc2c1; assay: as above; type: biochemical, human; details: other: — = too low to quantify
[11] = substrate: CCN(CC)Cc1cc(=O)oc2cc(OC)ccc12; assay: as above; type: biochemical, human; details: other: — = too low to quantify
[12] = substrate: CCOCOc1ccc2cc(C#N)c(=O)oc2c1; assay: as above; type: biochemical, human; details: other: — = too low to quantify
[13] = substrate: CCOc1ccc2cc(C#N)c(=O)oc2c1; assay: as above; type: biochemical, human; details: other: — = too low to quantify
[14] = substrate: COCOc1ccc2cc(C#N)c(=O)oc2c1; assay: as above; type: biochemical, human; details: other: — = too low to quantify
[15] = substrate: N#Cc1cc2ccc(OCOCc3ccccc3)cc2oc1=O; assay: as above; type: biochemical, human; details: other: — = too low to quantify
[16] = substrate: N#Cc1cc2ccc(OCc3ccccc3)cc2oc1=O; assay: as above; type: biochemical, human; details: other: — = too low to quantify
[17] = substrate: CCOCOc1ccc2cc(C#N)c(=O)oc2c1; assay: Kinetic properties of fluorogenic substrates with CYP 1A2; type: biochemical, human
[18] = substrate: CCOc1ccc2cc(C#N)c(=O)oc2c1; assay: as above; type: biochemical, human

T1 sequence (P08684 whole entry): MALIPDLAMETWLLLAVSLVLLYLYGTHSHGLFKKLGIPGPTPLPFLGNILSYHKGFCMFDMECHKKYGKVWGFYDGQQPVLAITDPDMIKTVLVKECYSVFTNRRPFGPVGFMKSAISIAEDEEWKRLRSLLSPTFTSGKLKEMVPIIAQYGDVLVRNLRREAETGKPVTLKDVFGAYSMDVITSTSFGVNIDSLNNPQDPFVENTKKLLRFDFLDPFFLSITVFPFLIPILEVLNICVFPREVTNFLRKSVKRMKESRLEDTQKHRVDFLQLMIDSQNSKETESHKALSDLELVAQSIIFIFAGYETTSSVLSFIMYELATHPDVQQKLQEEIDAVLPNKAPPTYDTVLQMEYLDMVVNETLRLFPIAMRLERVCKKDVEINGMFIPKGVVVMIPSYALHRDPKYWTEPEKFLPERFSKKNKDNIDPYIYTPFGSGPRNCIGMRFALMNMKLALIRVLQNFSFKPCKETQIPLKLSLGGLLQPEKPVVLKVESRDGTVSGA

CCCCc1oc2ccccc2c1C(=O)c1cc(I)c(OCCN(CC)CC)c(I)c1 [Amiodarone]
metabolism-dependent inhibitory activity against the CYP3A4 isozyme (CYP3A4 [1]): at least partial metabolism-dependent inhibitory activity

O=C(OCc1ccccc1)c1ccccc1-c1c2ccc(=O)cc-2oc2cc(OCc3ccccc3)ccc12 [DBF, Dibenzylfluorescein, reference compound]
type of kinetics (CYP3A4 [2]): sigmoidal | K1/2max (CYP3A4 [2]): 0.80 µM | vmax (CYP3A4 [2]): 4.30 min⁻¹ | v (1.25 uM) (CYP3A4 [2]): 3.27 min⁻¹ | v (10 uM) (CYP3A4 [2]): 4.40 min⁻¹ | type of kinetics (CYP 2C8): MichaelisMenten | v (1.25 uM) (CYP 2C8): 0.16 min⁻¹ | v (10 uM) (CYP 2C8): 0.37 min⁻¹

O=C(OCOCc1ccccc1)c1ccccc1-c1c2ccc(=O)cc-2oc2cc(OCOCc3ccccc3)ccc12 [DBOMF, Dibenzyloxymethylfluorescein]
type of kinetics (CYP3A4 [2]): sigmoidal | K1/2max (CYP3A4 [2]): 1.50 µM | vmax (CYP3A4 [2]): 16.00 min⁻¹ | v (1.25 uM) (CYP3A4 [2]): 6.00 min⁻¹ | v (10 uM) (CYP3A4 [2]): 15.50 min⁻¹ | type of kinetics (CYP 2C8): MichaelisMenten | v (1.25 uM) (CYP 2C8): 0.55 min⁻¹ | v (10 uM) (CYP 2C8): 1.54 min⁻¹

Cc1c2ccncc2c(C)c2c1[nH]c1ccccc12 [Ellipticine]
metabolism-dependent inhibitory activity against the CYP3A4 isozyme (CYP3A4 [1]; indicated by data for DBOMF): at least partial metabolism-dependent inhibitory activity | inhibition at 20 min, 10 µM (CYP3A4 [3]; substrate BOMCC): 92% | inhibition at 40 min, 10 µM (CYP3A4 [3]; substrate BOMCC): 100% | inhibition at 20 min, 10 µM (CYP3A4 [3]; substrate BOMR): 97% | inhibition at 40 min, 10 µM (CYP3A4 [3]; substrate BOMR): 100% | inhibition at 20 min, 10 µM (CYP3A4 [3]; substrate DBOMF): 40% | inhibition at 40 min, 10 µM (CYP3A4 [3]; substrate DBOMF): 100%

COc1ccc(Cc2nccc3cc(OC)c(OC)cc23)cc1OC [Papaverine]
metabolism-dependent inhibitory activity against the CYP3A4 isozyme (CYP3A4 [1]; indicated by data for DBOMF): at least partial metabolism-dependent inhibitory activity | inhibition at 20 min, 10 µM (CYP3A4 [3]; substrate BOMCC): 34% | inhibition at 40 min, 10 µM (CYP3A4 [3]; substrate BOMCC): 99% | inhibition at 20 min, 10 µM (CYP3A4 [3]; substrate BOMR): 69% | inhibition at 40 min, 10 µM (CYP3A4 [3]; substrate BOMR): 92% | inhibition at 20 min, 10 µM (CYP3A4 [3]; substrate DBOMF): 48% | inhibition at 40 min, 10 µM (CYP3A4 [3]; substrate DBOMF): 90%

B1: CYP 2D6 (Homo sapiens) (protein)
chain: MGLEALVPLAVIVAIFLLLVDLMHRRQRWAARYPPGPLPLPGLGNLLHVDFQNTPYCFDQLRRRFGDVFSLQLAWTPVVVLNGLAAVREALVTHGEDTADRPPVPITQILGFGPRSQGVFLARYGPAWREQRRFSVSTLRNLGLGKKSLEQWVTEEAACLCAAFANHSGRPFRPNGLLDKAVSNVIASLTCGRRFEYDDPRFLRLLDLAQEGLKEESGFLREVLNAVPVLLHIPALAGKVLRFQKAFLTQLDELLTEHRMTWDPAQPPRDLTEAFLAEMEKAKGNPESSFNDENLRIVVADLFSAGMVTTSTTLAWGLLLMILHPDVQRRVQQEIDDVIGQVRRPEMGDQAHMPYTTAVIHEVQRFGDIVPLGVTHMTSRDIEVQGFRIPKGTTLITNLSSVLKDEAVWEKPFRFHPEHFLDAQGHFVKPEAFLPFSAGRRACLGEPLARMELFLFFTSLLQHFSFSVPTGQPRPSHHGVFAFLVSPSPYELCAVPR
Km [4]: 18 µM | kcat [4]: 0.0017 s⁻¹ | kcat/Km [4]: 93 M⁻¹ s⁻¹ | Km [5]: 8 µM | kcat [5]: 0.00567 s⁻¹ | kcat/Km [5]: 708 M⁻¹ s⁻¹ | Km [6]: 5.0 µM | kcat [6]: 0.01 s⁻¹ | kcat/Km [6]: 2067 M⁻¹ s⁻¹ | Km [7]: 3.1 µM | kcat [7]: 0.000817 s⁻¹ | kcat/Km [7]: 263 M⁻¹ s⁻¹

B2: CYP 2C19 (Homo sapiens) (protein)
chain: MDPFVVLVLCLSCLLLLSIWRQSSGRGKLPPGPTPLPVIGNILQIDIKDVSKSLTNLSKIYGPVFTLYFGLERMVVLHGYEVVKEALIDLGEEFSGRGHFPLAERANRGFGIVFSNGKRWKEIRRFSLMTLRNFGMGKRSIEDRVQEEARCLVEELRKTKASPCDPTFILGCAPCNVICSIIFQKRFDYKDQQFLNLMEKLNENIRIVSTPWIQICNNFPTIIDYFPGTHNKLLKNLAFMESDILEKVKEHQESMDINNPRDFIDCFLIKMEKEKQNQQSEFTIENLVITAADLLGAGTETTSTTLRYALLLLLKHPEVTAKVQEEIERVIGRNRSPCMQDRGHMPYTDAVVHEVQRYIDLIPTSLPHAVTCDVKFRNYLIPKGTTILTSLTSVLHDNKEFPNPEMFDPRHFLDEGGNFKKSNYFMPFSAGKRICVGEGLARMELFLFLTFILQNFNLKSLIDPKDLDTTPVVNGFASVPPFYQLCFIPV
Km [8]: 57.2 µM | kcat [8]: 0.0325 s⁻¹ | kcat/Km [8]: 568 M⁻¹ s⁻¹ | Km [9]: 6.9 µM | kcat [9]: 0.0283 s⁻¹ | kcat/Km [9]: 4106 M⁻¹ s⁻¹ | Km [10]: 0.7 µM | kcat [10]: 0.00283 s⁻¹ | kcat/Km [10]: 4048 M⁻¹ s⁻¹ | Km [11]: 8.5 µM | kcat [11]: 0.0067 s⁻¹ | kcat/Km [11]: 784 M⁻¹ s⁻¹ | Km [12]: 16.6 µM | kcat [12]: 0.095 s⁻¹ | kcat/Km [12]: 5720 M⁻¹ s⁻¹ | Km [13]: 41.0 µM | kcat [13]: 0.0283 s⁻¹ | kcat/Km [13]: 671 M⁻¹ s⁻¹ | Km [14]: 3.2 µM | kcat [14]: 0.00833 s⁻¹ | kcat/Km [14]: 2060 M⁻¹ s⁻¹ | Km [15]: 14.0 µM | kcat [15]: 0.0317 s⁻¹ | kcat/Km [15]: 2260 M⁻¹ s⁻¹ | Km [16]: 6.4 µM | kcat [16]: 0.00167 s⁻¹ | kcat/Km [16]: 234 M⁻¹ s⁻¹

B3: CYP 1A2 (Homo sapiens) (protein)
chain: MALSQSVPFSATELLLASAIFCLVFWVLKGLRPRVPKGLKSPPEPWGWPLLGHVLTLGKNPHLALSRMSQRYGDVLQIRIGSTPVLVLSRLDTIRQALVRQGDDFKGRPDLYTSTLITDGQSLTFSTDSGPVWAARRRLAQNALNTFSIASDPASSSSCYLEEHVSKEAKALISRLQELMAGPGHFDPYNQVVVSVANVIGAMCFGQHFPESSDEMLSLVKNTHEFVETASSGNPLDFFPILRYLPNPALQRFKAFNQRFLWFLQKTVQEHYQDFDKNSVRDITGALFKHSKKGPRASGNLIPQEKIVNLVNDIFGAGFDTVTTAISWSLMYLVTKPEIQRKIQKELDTVIGRERRPRLSDRPQLPYLEAFILETFRHSSFLPFTIPHSTTRDTTLNGFYIPKKCCVFVNQWQVNHDPELWEDPSEFRPERFLTADGTAINKPLSEKMMLFGMGKRRCIGEVLAKWEIFLFLAILLQQLEFSVPPGVKVDLTPIYGLTMKHARCEHVQARLRFSIN
Km [17]: 11.0 µM | kcat [17]: 0.35 s⁻¹ | kcat/Km [17]: 31800 M⁻¹ s⁻¹ | Km [18]: 26.0 µM | kcat [18]: 0.733 s⁻¹ | kcat/Km [18]: 28200 M⁻¹ s⁻¹
